Measurements published in article PMC3020594.

Key:
[1] = substrate: Nc1ncn([C@H]2C[C@H](O)[C@@H](CO)O2)c(=O)n1; assay: purified protein; assay type: biochemical, Homo sapiens; details: zinc active site
[2] = substrate: Nc1ccn([C@H]2C[C@H](O)[C@@H](CO)O2)c(=O)n1; assay: purified protein; details: zinc active site

B1: human cytidine deaminase (CDA) (Homo sapiens; Y33G) (protein)
chain: MAQKRPACTLKPECVQQLLVCSQEAKKSAYCPGSHFPVGAALLTQEGRIFKGCNIENACYPLGICAERTAIQKAVSEGYKDFRAIAIASDMQDDFISPCGACRQVMREFGTNWPVYMTKPDGTYIVMTVQELLPSSFGPEDLQKTQ
In the case of B1, the Km [1] is reported as 349.0 µM, the Vmax [1] is reported as 0.174 µmol/min/mg and the Km [2] is reported as 47.6 µM. The Vmax [2] was 0.127 µmol/min/mg.
